Here are results for ten molecules from patent US20120282637A1 (Sanofi, published 2012).

Several values for one entry are separate records, joined by “and”; a condition that tells them apart may be missing. Equal values may be shown once.

The target in test [1] is T1, sRAGE (V-C1-C2) lot LP08062 (human, UniProt Q15109 23-331, limits assumed).
T1 construct: domain: V-C1-C2; also called Human RAGE; LP08062 (Rage)
Put plainly: SPR (Biacore), mAb captured on anti-mouse Fc, sRAGE 15 nM, Langmuir 1:1. On the procedure:
The assay is based on a capture assay using immobilized anti-mouse Fc IgG on CM5 chip. For immobilization of anti-Fc antibody HBS-EP was used as running buffer. Standard amine coupling to a CM5 chip was carried out at a contact time of 11 min and a flow rate of 10 μl/min. 10 mM Sodium Acetate pH 5.0 was used as immobilization buffer. The protein concentration (anti-mouse Fc, Biacore BR-1008-38) was 100 μg/mL.
For binding analysis SN anti-RAGE mAb diluted in running buffer at 1/10 (flow rate 5 μl/min) and sRAGE (V-C1-C2) lot LP08062 diluted in running buffer at 15 nM (flow rate 50 μl/min) was used as […], respectively (running buffer: HBS-P+BSA 12 mg/mL+CM Dextran 12 mg/mL and Regeneration solution: 10 mM Glycine pH 1.7). Langmuir 1:1 analysis was used as fitting model.
In general terms: In SPR one partner is held on a chip, and binding of the other changes the refractive index at the surface.

Another test addresses rat sRAGE (rat, UniProt Q63495 23-341, limits assumed). Kind of test: ELISA, O.D. 450 nm, one bar per species; plate format and antibody concentration not given. (ELISA stands for enzyme-linked immunosorbent assay.)
In the next test the target is mouse sRAGE (mouse, UniProt Q62151 23-340, limits assumed). The test is described as above.
mouse sRAGE, sequence (Q62151 23-340 limits assumed): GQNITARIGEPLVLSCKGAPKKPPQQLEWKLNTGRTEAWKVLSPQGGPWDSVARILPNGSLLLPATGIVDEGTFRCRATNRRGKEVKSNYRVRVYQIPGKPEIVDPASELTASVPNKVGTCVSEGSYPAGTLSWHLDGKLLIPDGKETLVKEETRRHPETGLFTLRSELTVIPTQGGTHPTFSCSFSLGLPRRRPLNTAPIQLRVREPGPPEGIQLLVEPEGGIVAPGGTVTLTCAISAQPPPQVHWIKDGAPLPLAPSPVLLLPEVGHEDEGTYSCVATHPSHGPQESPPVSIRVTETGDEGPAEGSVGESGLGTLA
A further test addresses T2, RAGE C2 domain (UniProt Q15109 235-327, limits assumed).
T2 construct: domain: C2 domain
Put plainly: domain mapping, Table 1.

Test [2] has as its target T3, RAGE-Fc (human, UniProt Q15109 23-344, limits assumed).
T3 construct: also called hRAGE; not shown: Fc part, detected with anti-hIgG Fc-specific conjugate
Kind of test: competition ELISA against S100A6, mAb 10 µg/mL. On the procedure:
For the S100A6 Competition ELISA Assay wells have been coated with S100A6 at 0.5 μg/well. Thereafter, RAGE-Fc at 10 μg/mL and competing mAb at 10 μg/mL have been pre-incubated at room temperature for 30 min. The mixture was transferred into S100A6-coated plates and incubated under agitation at room temperature for 2 hours. Bound RAGE-Fc was detected with anti-hIgG Fc-specific-POD using TMB (3, 3′, 5, 5′-Tetramethylbenzidine) at 450 nm.

For another test, the target named is T4, RAGE V domain (UniProt Q15109 23-121, limits assumed).
T4 construct: domain: V domain
T4 sequence (Q15109 23-121 limits assumed): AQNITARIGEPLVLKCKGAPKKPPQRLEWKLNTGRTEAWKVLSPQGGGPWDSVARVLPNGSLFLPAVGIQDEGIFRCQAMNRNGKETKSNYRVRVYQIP
Put plainly: domain mapping, Table 1.

Test [3] addresses T3, RAGE-Fc. Kind of test: competition ELISA, hRAGE-S100B interaction.
The target of test [4] is T3, RAGE-Fc. Kind of test: competition ELISA, RAGE-S100B interaction.

As usually defined, the Kd is the concentration at which binding is half-saturated. A low value points to higher affinity. As usually defined, the koff is the first-order rate constant of dissociation. High values mean a short-lived complex, low ones a long-lived complex. For orientation: kon means the rate constant with which the complex forms. High values mean faster complex formation, low ones slower complex formation. Usually IC50 stands for the point on the concentration scale where inhibition reaches its midpoint.

T3 sequence (Q15109 23-344 limits assumed): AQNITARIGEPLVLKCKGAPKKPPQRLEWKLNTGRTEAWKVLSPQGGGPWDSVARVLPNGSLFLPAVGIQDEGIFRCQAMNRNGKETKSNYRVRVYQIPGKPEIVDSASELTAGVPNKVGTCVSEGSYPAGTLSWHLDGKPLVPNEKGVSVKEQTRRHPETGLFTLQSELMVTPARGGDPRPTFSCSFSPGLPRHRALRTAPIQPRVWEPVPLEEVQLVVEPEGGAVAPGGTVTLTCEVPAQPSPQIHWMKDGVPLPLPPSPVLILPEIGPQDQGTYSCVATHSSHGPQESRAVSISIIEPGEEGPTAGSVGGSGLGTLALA
T2 sequence (Q15109 235-327 limits assumed): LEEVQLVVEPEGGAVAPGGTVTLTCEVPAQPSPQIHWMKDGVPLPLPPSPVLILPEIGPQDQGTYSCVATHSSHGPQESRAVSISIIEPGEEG
T1 sequence (Q15109 23-331 limits assumed): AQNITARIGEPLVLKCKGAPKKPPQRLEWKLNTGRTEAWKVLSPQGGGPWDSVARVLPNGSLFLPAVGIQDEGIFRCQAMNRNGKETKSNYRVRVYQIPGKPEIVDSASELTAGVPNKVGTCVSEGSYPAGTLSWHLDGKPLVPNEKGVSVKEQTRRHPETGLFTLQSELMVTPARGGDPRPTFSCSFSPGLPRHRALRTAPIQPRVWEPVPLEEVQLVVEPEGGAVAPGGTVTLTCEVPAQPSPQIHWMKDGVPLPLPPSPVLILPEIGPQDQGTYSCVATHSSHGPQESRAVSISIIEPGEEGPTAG
rat sRAGE, sequence (Q63495 23-341 limits assumed): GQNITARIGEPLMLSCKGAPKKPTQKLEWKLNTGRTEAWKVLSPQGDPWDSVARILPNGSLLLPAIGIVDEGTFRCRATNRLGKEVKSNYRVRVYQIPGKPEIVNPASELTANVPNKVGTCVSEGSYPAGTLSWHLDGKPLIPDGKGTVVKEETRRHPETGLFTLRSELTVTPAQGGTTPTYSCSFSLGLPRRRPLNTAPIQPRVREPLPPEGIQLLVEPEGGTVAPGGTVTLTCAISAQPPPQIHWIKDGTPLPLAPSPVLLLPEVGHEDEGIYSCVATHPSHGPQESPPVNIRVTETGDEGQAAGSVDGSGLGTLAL

B1: 95 RAGE-1 (antibody, V domains shown)
VH: QVQLQQPGAELVKPGASVKLSCKASGYTFTSYWMHWVKQRPGQGLEWIGESNPSNGRTNYNEKFKNKATLTVDKSSSTAYMQLSSLTSEDSAVYYCARAPYYGFDYWGQGTTLTVSS
VL: QAVVTQESALTTSPGETVTLTCRSSTGAVTTSNYANWVQEKPDHLFTGLTGGTNNRAPGVPARFSGSLIGDKAALTITGAQTEDEAIYFCALWYSNHWVFGGGTKLTVL
notes: Anti-RAGE monoclonal antibody from a hybridoma, captured by anti-mouse Fc; also called Protein 95 RAGE-1
For the molecule B1, in test [1], the Kd is 0.462 nM, the koff came out at 0.00123 s⁻¹ and the kon is 2.66e+06 M⁻¹ s⁻¹.

B2: 140 RAGE-1 (antibody, V domains shown)
VH: QVQLQQPGAELVKPGASVRLSCKASGYTFTSYWMHWVKQRPGQGLEWIGEINPSNGRTNYNEKFKSKATLTVDKSSSTAYMQLSSLTSEDSAVYYCARDGLGYRPIAMDYWGQGTSVTVSS
VL: QIVLTQSPAIMSASPGEKVTISCSASSSVSYMYWYQQKPGSSPKPWIYRTSNLASGVPARFSGSGSGTSYSLTISSMEAEDAATYYCQQYHSYPPMYTFGGGTKLEIK
notes: Anti-RAGE monoclonal antibody from a hybridoma, captured by anti-mouse Fc; also called Protein 140 RAGE-1
In test [1], B2 showed a Kd of 0.303 nM, a dissociation rate constant (koff) of 0.00157 s⁻¹ and a kon of 5.19e+06 M⁻¹ s⁻¹.

B3: 130 RAGE-1 (antibody, V domains shown)
VH: EVQLVESGGGLVKPGGSLKLSCAASGFTFSSYVMSWVRQSPEKRLEWVAEISSGGSYTYYPDTVTGRFTISRDNDKNTLYLEMSSLRSEDTAMYYCARPPYGKDAMDYWGQGTSVTVSS
VL: QIVLTQSPAIMSASPGEKVTMTCSASSSVSYMHWYQQKSGTSPKRWISDTSKLASGVPARFSGSGSGTSYSLTISSMEAEDAATYYCQQWSSNPPTFGGGTKLEIK
notes: Anti-RAGE monoclonal antibody from a hybridoma, captured by anti-mouse Fc; also called Protein 130 RAGE-1
For B3, in test [1], the Kd was 0.236 nM, the dissociation rate constant (koff) came out at 0.00136 s⁻¹ and the kon stood at 5.76e+06 M⁻¹ s⁻¹. Also, in the test with rat sRAGE, the binding result is on record as “no binding (tested: not given)”. The binding result in the test with mouse sRAGE was “no binding (tested: not given)”.

B4: 173 RAGE-1 (antibody, V domains shown)
VH: EVKLEESGGGLVQPGGSMKLSCVASGFTFSNYWMNWVRQSPEKGLEWVAEIRLKSNNYATHYAESVKGRFTISRDDSKSSVYLQMNDLRAEDPGIYYCIRDYGNYAMDHWGQGTSVTVSS
VL: DIVMTQSQKFMSTSVGDRVSVTCKASQNVGTNVAWYQQKPGQSPKALIYSASYRYSGVPDRFTGSGSGTDFTLTISNVQSEDLAEYFCQQYNSYPLTFGAGTKLELK
notes: Anti-RAGE monoclonal antibody from a hybridoma, captured by anti-mouse Fc; also called LP08107
Regarding B4, the binding result with RAGE C2 domain is recorded as “no binding”. In test [1], this molecule registered a dissociation constant Kd of 0.678 nM, a koff of 0.00227 s⁻¹ and a kon of 3.35e+06 M⁻¹ s⁻¹. Further, in the test with rat sRAGE, the binding result is recorded as “no binding (tested: not given)”. Also, the binding result with mouse sRAGE is “no binding (tested: not given)”.

B5: 250 RAGE-1 (antibody, V domains shown)
VH: EVKLEESGGGLVQPGGSMKLSCVASGFTFSNYWMNWVRQSPEKGLEWVAEIRLKSNNYATHYAESVKGRFTISRDDSKSSVYLQMNNLRAEDTGIYFCIRDYGNYAMDYWGQGTSVTVSS
VL: DIVMTQSQKFMSTSVGDRVSVTCKASQNVGTNVAWYQQKPGQSPKALIYSASYRYSGVPDRFTGSGSGTDFTLTISNVQSEDLAEFFCQQYNSYPLTFGAGTKLELK
notes: Anti-RAGE monoclonal antibody from a hybridoma, captured by anti-mouse Fc; also called Protein 250 RAGE-1
In test [1], B5 showed a Kd of 0.556 nM, a koff of 0.00199 s⁻¹ and a kon of 3.58e+06 M⁻¹ s⁻¹. Further, in the test with rat sRAGE, the binding result is “no binding (tested: not given)”. In the test with mouse sRAGE, the binding result is recorded as “no binding (tested: not given)”.

B6: 152 RAGE-1 (antibody, V domains shown)
VH: DVQLQESGPDLVKPSQSLSLTCTVTGYSITSGYSWHWIRQFPGNKLEWMGYIHYSGSTNYNPSLKSRISITRDTSKNQFFLQLNSVTTEDTATYYCARGGDFAYWGQGTLVTVSA
VL: DIVLTQSPASLAVSLGQRATISCRASKSVGTSDSSYMHWYQQKPGQPPKLLIYLASNLESGVPARFSGSGSGTDFTLNIHPVEEEDAATYYCQHSRELYTFGGGTKLEIK
notes: Anti-RAGE monoclonal antibody from a hybridoma, captured by anti-mouse Fc; also called LP08104; Protein 152 RAGE-1
For B6, the binding result with RAGE C2 domain is listed as “no binding”. For the same molecule, in the test with RAGE-Fc [2], the inhibitory effect is > 20%. In test [1], this molecule displayed a Kd of 0.687 nM, a koff of 0.00265 s⁻¹ and a kon of 3.86e+06 M⁻¹ s⁻¹.

B7: 347 RAGE-1 (antibody, V domains shown)
VH: QVQLQQSGAELAKPGASVKMSCRASGYTFTDYWMHWVKQRPGQGLEWIGFINPSTVYTEYIPKFKDKATLTADKSSSTAYMQLSSLTSEDSAVYYCARSDGGWYFDVWGAGTTVTVSS
VL: DIQMTQSSSYLSVSLGGRVTITCKASDRINYWLAWYQQKPGNAPRLLISGATTLETGVPSRFSGSGSGKDYTLSITSLQTEDVATYYCQQYWSTPYTFGGGTKLELK
notes: Anti-RAGE monoclonal antibody from a hybridoma, captured by anti-mouse Fc
With B7, in test [1], binding was put at a Kd of 0.666 nM, the koff came to 0.00227 s⁻¹ and the kon came out at 3.41e+06 M⁻¹ s⁻¹. The binding result with rat sRAGE was “no binding (tested: not given)”. Besides, the binding result with mouse sRAGE is on record as “no binding (tested: not given)”.

B8: 326 RAGE-1 (antibody, V domains shown)
VH: EVKLVESGGGLVKPGGSLKLSCAASGFAFSSYDMSWVRQTPEKRLEWVATISSGGSYTSYPDSVQGRFTISRDNARNTLYLQMSSLRSEDTALYYCASSQLPPYAMDYWGQGTSVTVSS
VL: DIVMTQSQKFMSTSVGDRVSITCKASQNVGTAVAWYQQKPGQSPKLLIYSASNRYTGVPDRFTGSGSGTDFTLTISNMQSEDLADYFCQQYSSYPLLTFGAGTKLELK
notes: Anti-RAGE monoclonal antibody from a hybridoma, captured by anti-mouse Fc; also called LP08137; Protein 326 RAGE-1
For B8, the binding result with RAGE V domain is “no binding”; with RAGE C2 domain it was “no binding”; in the test with rat sRAGE, “no binding (tested: not given)”; in the test with mouse sRAGE it was “no binding (tested: not given)”. Also, the IC50 in the test with RAGE-Fc [3] is 0.097 µg/mL and 0.64 nM; in the test with RAGE-Fc [4] it was 0.6 nM. This molecule gave a Kd in test [1] of 0.596 nM. This molecule yielded a koff in test [1] of 0.00171 s⁻¹. Further, the kon in test [1] came out at 2.87e+06 M⁻¹ s⁻¹.

B9: 316 RAGE-1 (antibody, V domains shown)
VH: QVQLQQSGPELVRPGASVKMSCKASGYTFTSYWMHWVKQRPGQGLEWIGMIDPSNSETRLNQKFKDKATLNVDKSSNTAYMQLSSLTSEDSAVYYCARNFYGSSLRVWGAGTTVTVSS
VL: DIVLTQSPASLAVSLGQRATISCRASKSVSISGYSYLHWNQQKPGQSPKLLIYLASNLESGVPARFSGSGSGTDFTLNIHPVEEEDAATYYCQHSRELPYTFGGGTKLEIK
notes: Anti-RAGE monoclonal antibody from a hybridoma, captured by anti-mouse Fc; also called Protein 316 RAGE-1
Regarding B9, in test [1], the affinity, expressed as Kd, was 0.319 nM; the koff worked out at 0.00177 s⁻¹; the kon stood at 5.54e+06 M⁻¹ s⁻¹. In addition, the binding result in the test with rat sRAGE is reported as “no binding (tested: not given)”. Moreover, the binding result with mouse sRAGE is “no binding (tested: not given)”.

B10: 253 RAGE-1 (antibody, V domains shown)
VH: QVQLQQSGPELVKPGASVRISCKASGYTFTDYYIHWVKQRPGQGLEWIGWIYPGNVITKYNEKFKGKATLTADKSSSTAYMQLSSLTSEDSAVYFCARYDYDYAMDYWGQGTSVTVSS
VL: DIVMSQSPSSLAVSVGEKVTMSCKSSQTLLYSSNQKNYLAWYQQKPGQSLKLLIYWASTRESGVPDRFAGSGSGTDFTLTISSVKAEDLAVYYCQQYFGYPYTFGGGTKLEIK
notes: Anti-RAGE monoclonal antibody from a hybridoma, captured by anti-mouse Fc; also called LP08127
Consider B10, for which, in the test with RAGE V domain, the binding result is recorded as “no binding”. Also, the binding result with RAGE C2 domain is recorded as “no binding”. In the test with RAGE-Fc [3], this molecule showed an IC50 of 0.108 µg/mL. The IC50 with RAGE-Fc [4] was 0.7 nM. In test [1], this molecule came in with a Kd of 0.512 nM, a koff of 0.00199 s⁻¹ and a kon of 3.89e+06 M⁻¹ s⁻¹.
